Laboratory results: patent US20090131309A1, “ICA512 COUPLES INSULIN SECRETION AND GENE EXPRESSION IN BETA-CELLS” (Technische Universität Dresden Medizinizche Fakultät Carl …, priority 2004, published 2009)
Residues, ends and D or L forms follow the SMILES beside them. *: point of attachment. Cbz = O=C(OCc1ccccc1)*

Columns and labels:
[1] = tested on: T1, 6X histidine-tagged human ICA512 cytoplasmic domain (residues 601-979)
T1 sequence: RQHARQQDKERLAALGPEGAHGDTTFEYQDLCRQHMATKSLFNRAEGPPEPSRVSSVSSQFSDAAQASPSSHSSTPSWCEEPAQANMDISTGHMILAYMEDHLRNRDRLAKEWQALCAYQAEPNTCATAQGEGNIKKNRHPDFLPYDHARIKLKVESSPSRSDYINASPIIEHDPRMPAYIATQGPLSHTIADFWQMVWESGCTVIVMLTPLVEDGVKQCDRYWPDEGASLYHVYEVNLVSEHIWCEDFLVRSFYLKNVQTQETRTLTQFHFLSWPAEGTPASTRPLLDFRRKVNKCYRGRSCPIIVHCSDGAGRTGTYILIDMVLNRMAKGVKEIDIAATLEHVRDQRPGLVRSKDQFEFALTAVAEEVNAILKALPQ

μ-calpain = target: T2, μ-calpain (Homo sapiens, UniProt P07384); assay type: biochemical; details: bacterially expressed ICA512 (601-979), 50 μM Ca2+, 30 μM inhibitor
T2 sequence (P07384 1-714): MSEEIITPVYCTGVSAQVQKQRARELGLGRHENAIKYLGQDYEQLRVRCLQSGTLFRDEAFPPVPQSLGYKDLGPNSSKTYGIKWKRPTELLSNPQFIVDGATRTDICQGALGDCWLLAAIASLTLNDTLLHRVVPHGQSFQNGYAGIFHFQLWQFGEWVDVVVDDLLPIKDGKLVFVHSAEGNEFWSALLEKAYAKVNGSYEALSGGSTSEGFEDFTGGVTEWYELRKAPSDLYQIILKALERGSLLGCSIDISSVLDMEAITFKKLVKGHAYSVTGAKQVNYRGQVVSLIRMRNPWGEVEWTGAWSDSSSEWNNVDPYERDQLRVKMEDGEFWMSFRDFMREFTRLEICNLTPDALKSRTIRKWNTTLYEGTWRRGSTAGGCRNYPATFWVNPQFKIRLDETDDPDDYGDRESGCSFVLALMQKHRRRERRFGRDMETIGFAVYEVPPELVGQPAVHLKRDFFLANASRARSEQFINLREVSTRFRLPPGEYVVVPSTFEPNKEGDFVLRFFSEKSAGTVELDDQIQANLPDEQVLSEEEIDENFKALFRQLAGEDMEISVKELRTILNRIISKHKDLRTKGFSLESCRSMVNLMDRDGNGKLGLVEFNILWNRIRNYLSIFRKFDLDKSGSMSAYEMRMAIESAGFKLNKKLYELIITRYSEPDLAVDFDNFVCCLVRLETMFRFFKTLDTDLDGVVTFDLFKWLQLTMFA
T2 sequence (P04632 1-268 partner): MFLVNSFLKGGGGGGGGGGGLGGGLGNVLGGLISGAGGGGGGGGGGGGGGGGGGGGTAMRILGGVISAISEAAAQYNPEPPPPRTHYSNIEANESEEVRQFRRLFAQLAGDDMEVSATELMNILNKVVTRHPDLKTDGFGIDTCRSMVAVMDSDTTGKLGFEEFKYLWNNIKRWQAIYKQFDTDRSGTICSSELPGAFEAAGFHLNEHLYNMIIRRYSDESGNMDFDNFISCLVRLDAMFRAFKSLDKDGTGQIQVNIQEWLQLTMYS
Description: In-vitro μ-calpain cleavage. 3 μg bacterially expressed His-ICA512 cytoplasmic domain (residues 601-979) (Ort et al., 2001) were incubated in 20 μl buffer (20 mM Tris-HCl pH 7.5, 50 μM CaCl2, 1 mM L-cysteine) at room temperature with or without 150 ng μ-calpain (Calbiochem) and 30 μM calpeptin or MG-132 for 1, 5, 15 or 45 minutes. The reactions were stopped by addition of an equal volume of 2×SDS sample buffer. Following SDS-PAGE, proteins were stained with Coomassie Blue (Bio-Rad).

[2] = target: ICA512-TMF (endogenous in INS-1 cells) (rat) (UniProt Q63259); test: cell-based or functional assay
PIASy = target: T3, PIASy (Mus musculus, UniProt Q9JM05); test: GST pull-down assay with PIASy; assay type: binding; details: in-vitro transcribed and translated 35S-labeled partner, glutathione-sepharose beads
T3 construct: made in house; host or cells: in-vitro transcription-translation (T7 coupled system, Promega)
T3 sequence (Q9JM05 2-507): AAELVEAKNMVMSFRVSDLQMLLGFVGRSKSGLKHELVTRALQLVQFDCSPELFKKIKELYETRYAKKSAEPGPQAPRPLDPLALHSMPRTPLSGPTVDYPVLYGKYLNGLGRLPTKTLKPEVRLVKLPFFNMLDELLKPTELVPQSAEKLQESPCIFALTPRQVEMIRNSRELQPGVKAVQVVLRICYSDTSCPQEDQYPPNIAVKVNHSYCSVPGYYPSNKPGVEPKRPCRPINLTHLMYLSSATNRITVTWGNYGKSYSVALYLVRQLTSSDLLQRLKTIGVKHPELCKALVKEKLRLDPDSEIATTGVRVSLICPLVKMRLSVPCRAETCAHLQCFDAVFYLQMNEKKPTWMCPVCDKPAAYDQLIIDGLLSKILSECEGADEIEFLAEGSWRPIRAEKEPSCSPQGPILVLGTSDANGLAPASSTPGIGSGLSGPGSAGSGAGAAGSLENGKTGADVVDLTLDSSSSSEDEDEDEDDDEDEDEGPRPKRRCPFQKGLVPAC
Description: GST-Pull Down Assays. ICA512 (601-979) cDNA in pET28a (invitrogen) (29) was in vitro transcribed and translated using the T7/coupled transcription-translation system (Promega, Madison, Wis.) according to manufacture's instructions. PIAS1-GST and PIASy-GST (a kind gift of Rudolf Grosschedl) were expressed in bacteria as previously described (21, 30). Next, [^35S]-methionine-labeled ICA512 (601-979) was incubated overnight at 4° C. in GST binding buffer (120 mM NaCl, 50 mM Tris pH8, 0.25% Nonidet P-40, 1 mM DTT, 1 mM PMSF) with GST-fusion proteins or GST alone coupled to glutathione-sepharose beads (Amersham, Freiburg, Germany). Beads were washed five times with binding buffer, and then eluted with 10 mM reduced glutathione. The eluate was subjected to SDS-PAGE and analyzed by autoradiography.
Pull-down assays. GST-ICA512 (601-979), GST-ICA512 (700-979), and GST-ICA512 (800-979) were bacterially expressed as described^26. [^35S]-methionine-PIASy, -ICA512 (601-979), -p53 and -firefly luciferase were in-vitro transcribed and translated with the T7/coupled transcription-translation system (Promega) according to the manufacturer's instructions. [^35S]-PIASy was incubated with GST-ICA512 proteins or GST, while [^35S]-ICA512 (601-979), [^35S]-p53 and [^35S]-firefly luciferase were incubated with MBP-Ubc9. Proteins were collected with glutathione-(Amersham) or amylose-(New England Biolabs) sepharose beads as described^38. Proteins eluted from beads with glutathione or maltose were analyzed by SDS-PAGE and autoradiography with a phosphoimager BAS1800 II (Fuji).

STAT5 = test: Firefly luciferase reporter assay for STAT activity (8GLE-CAS-FL) in INS-1 cells; assay type: cell-based, rat; details: co-transfected INS-1 cells, hGH stimulation
Description: Firefly luciferase assays. INS-1 cells were co-transfected with 8GLE-CAS-FL and one or two of the following plasmids: pEGFP, ICA512-CCF-GFP, ICA512-CCF(K/A^754)-GFP and PIASy-GFP. Two days after transfection, cells were incubated in low serum medium for 18 hrs, then stimulated with 20 nM hGH for 20 minutes, and finally left in resting buffer for 6 additional hours. Cells were harvested in 500 μl lysis reagent for luciferase assays (Promega) and 10 μl were used for measurement of luciferase activity in a Berthold luminometer. Each sample was performed in triplicate and the data represent the mean of at least 2 independent experiments.

Molecule: µ-calpain (Calbiochem)
- in-vitro cleavage of bacterially expressed ICA512 (601-979) by µ-calpain, Coomassie Blue staining [1]: Cleavage by µ-calpain was inhibited by calpeptin and MG-132, another inhibitor of cysteine proteases (FIG. 8)

Molecule: CC(C)C[C@@H](C=O)NC(=O)[C@H](CC(C)C)NC(=O)[C@H](CC(C)C)NC(=O)OCc1ccccc1 [MG-132] (Cbz-Leu-Leu-Leu-aldehyde)
- Cleavage by μ-calpain (μ-calpain): inhibited

Molecule: rat µ-calpain (endogenous in INS-1 cells) (from UniProt P97571 1-713)
- stimulus-dependent degradation of ICA512-TMF after siRNA knockdown of µ-calpain in INS-1 cells [2]: 1.6 fold

B1: GST-ICA512 (700-979): GST fusion which only contains the PTP domain (protein)
chain: EDHLRNRDRLAKEWQALCAYQAEPNTCATAQGEGNIKKNRHPDFLPYDHARIKLKVESSPSRSDYINASPIIEHDPRMPAYIATQGPLSHTIADFWQMVWESGCTVIVMLTPLVEDGVKQCDRYWPDEGASLYHVYEVNLVSEHIWCEDFLVRSFYLKNVQTQETRTLTQFHFLSWPAEGTPASTRPLLDFRRKVNKCYRGRSCPIIVHCSDGAGRTGTYILIDMVLNRMAKGVKEIDIAATLEHVRDQRPGLVRSKDQFEFALTAVAEEVNAILKALPQ
modifications: left off: a dimerising Fc or GST
notes: GST fusion which only contains the PTP domain
- binding to PIASy in pull-down assay (PIASy): bound

B2: GST-ICA512 (800-979): GST fusion which lacks the first 100 residues of the PTP domain (protein)
chain: ESGCTVIVMLTPLVEDGVKQCDRYWPDEGASLYHVYEVNLVSEHIWCEDFLVRSFYLKNVQTQETRTLTQFHFLSWPAEGTPASTRPLLDFRRKVNKCYRGRSCPIIVHCSDGAGRTGTYILIDMVLNRMAKGVKEIDIAATLEHVRDQRPGLVRSKDQFEFALTAVAEEVNAILKALPQ
modifications: left off: a dimerising Fc or GST
notes: GST fusion which lacks the first 100 residues of the PTP domain
- binding to PIASy in pull-down assay (PIASy): did not bind

B3: GST-ICA512 (601-979): GST fusion encompassing the entire ICA512 cytoplasmic domain (protein)
chain: RQHARQQDKERLAALGPEGAHGDTTFEYQDLCRQHMATKSLFNRAEGPPEPSRVSSVSSQFSDAAQASPSSHSSTPSWCEEPAQANMDISTGHMILAYMEDHLRNRDRLAKEWQALCAYQAEPNTCATAQGEGNIKKNRHPDFLPYDHARIKLKVESSPSRSDYINASPIIEHDPRMPAYIATQGPLSHTIADFWQMVWESGCTVIVMLTPLVEDGVKQCDRYWPDEGASLYHVYEVNLVSEHIWCEDFLVRSFYLKNVQTQETRTLTQFHFLSWPAEGTPASTRPLLDFRRKVNKCYRGRSCPIIVHCSDGAGRTGTYILIDMVLNRMAKGVKEIDIAATLEHVRDQRPGLVRSKDQFEFALTAVAEEVNAILKALPQ
modifications: left off: a dimerising Fc or GST
notes: GST fusion encompassing the entire ICA512 cytoplasmic domain
- binding to PIASy in pull-down assay (PIASy): bound

B4: ICA512-CCF(K/A^754)-GFP: ICA512-CCF-GFP construct in which Lys754 was replaced by alanine (protein)
chain: SQFSDAAQASPSSHSSTPSWCEEPAQANMDISTGHMILAYMEDHLRNRDRLAKEWQALCAYQAEPNTCATAQGEGNIKKNRHPDFLPYDHARIKLAVESSPSRSDYINASPIIEHDPRMPAYIATQGPLSHTIADFWQMVWESGCTVIVMLTPLVEDGVKQCDRYWPDEGASLYHVYEVNLVSEHIWCEDFLVRSFYLKNVQTQETRTLTQFHFLSWPAEGTPASTRPLLDFRRKVNKCYRGRSCPIIVHCSDGAGRTGTYILIDMVLNRMAKGVKEIDIAATLEHVRDQRPGLVRSKDQFEFALTAVAEEVNAILKALPQ
modifications: left off: large carriers
notes: ICA512-CCF-GFP construct in which Lys754 was replaced by alanine
- STAT5 transcription activity (8GLE-CAS-FL luciferase) (STAT5): enhances its transcription activity less than ICA512-CCF-GFP
